Key:
CaMKII = experiment: cell-based or functional assay
CaMKIV = experiment: cell-based or functional assay

CaMKII, sequence (chain, from a related filing, as listed by the source): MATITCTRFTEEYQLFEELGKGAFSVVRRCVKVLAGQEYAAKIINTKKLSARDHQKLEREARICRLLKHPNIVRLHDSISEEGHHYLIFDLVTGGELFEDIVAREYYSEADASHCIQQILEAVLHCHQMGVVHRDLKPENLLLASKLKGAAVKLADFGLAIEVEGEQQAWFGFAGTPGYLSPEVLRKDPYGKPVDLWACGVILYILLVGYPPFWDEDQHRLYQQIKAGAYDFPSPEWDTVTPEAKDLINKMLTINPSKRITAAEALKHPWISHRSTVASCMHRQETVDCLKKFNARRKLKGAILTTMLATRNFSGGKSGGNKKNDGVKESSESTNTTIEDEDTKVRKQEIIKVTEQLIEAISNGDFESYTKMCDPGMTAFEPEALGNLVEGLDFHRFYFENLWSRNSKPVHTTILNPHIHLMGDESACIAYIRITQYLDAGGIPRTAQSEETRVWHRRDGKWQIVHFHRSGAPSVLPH

Binder	IC50, phosphorylation of syntide 2 by CaMKII (CaMKII) [nM]	reduction of kinase activity in a kinase panel, 5 µM tatCN21 (CaMKIV) [%]
KRPPKLGQIGRSKRVVIEDDR [CN21a]	100	–
YGRKKRRQRRRKRPPKLGQIGRSKRVVIEDDR (modifications not checked) [tatCN21]	–	35

Source: patent US20170368136A1
